In article PMC5914118, “Exploiting the Concept of Multivalency with ^68Ga- and ^89Zr-Labelled Fusarinine C-Minigastrin Bioconjugates for Targeting CCK2R Expression” (Contrast Media & Molecular Imaging, 2018):
Like-named read-outs stand apart in the source and are kept apart here. Marks after values point to notes of the source that are not given here.

What was measured:
[1] = format: physicochemical
Method: Aliquots (50 μL) of ^68Ga- and ^89Zr-labelled mono-, di-, and trimer (10 μM) were diluted in 450 μL PBS. After adding 500 μL octanol the mixture was vortexed with 1400 rpm (MS 3 basic vortexer, IKA, Staufen, Germany) for 15 min at RT followed by centrifugation for 2 min at 4500 rpm. Subsequently, 100 μL aliquots of the organic and the aqueous layer were collected and logD values were calculated using Excel (n = 3, six replicates) after gamma counter measurement.

[2] = system: A431-CCK2R/A431-mock tumour xenografted BALB/c nude mice; details: mouse, in vivo
Method: All animal experiments were conducted in compliance with the Austrian and Dutch animal protection laws and with approval of the Austrian Ministry of Science (BMWF-66.011/000604-II/3b/2012 and BMWFW-66.011/0049-WF/II/3b/2014). In vivo stability studies were conducted in 5-week-old female BALB/c mice (in-house breed, ZVTA Innsbruck, Dr. Hermann Dietrich). The biodistribution studies were performed using female 8−10-week-old athymic BALB/c nude mice (Charles River Laboratories, Sulzfeld, Germany). Tumour xenografts were induced by subcutaneous injection of 2 × 10^6 A431-CCK2R cells (receptor positive) in the right and the same amount of A431-mock (receptor negative) in the left flank. Tumours were allowed to grow until they had reached a volume of 0.3–0.6 cm^3. To evaluate the biodistribution profile nude mice (n = 4) were intravenously injected with either 1-2 MBq ^68Ga- or 0.3 MBq ^89Zr-labelled mono-, di-, and trimer (0.1–0.2 nmol). The animals were sacrificed by cervical dislocation after 1 h as well as 2 h and 4 h in case of ^68Ga- and ^89Zr-labelled trimer, followed by the collection of organs and tissue. The collected samples were measured in the gamma counter and the results were calculated as percentage of injected dose per gram tissue (% ID/g).

[3] = molecular target: T1, human CCK2R (A431-CCK2R cells) (Homo sapiens, UniProt P32239); set-up: method as in PMID 28462989; details: reference peptide, whole A431-CCK2R cells; cited from earlier work
T1 construct: expressed in transfected cells; host or cells: A431 human epidermoid carcinoma cells, stably transfected (plasmid pCR3.1); gift from Aloj
T1 sequence (P32239 1-447): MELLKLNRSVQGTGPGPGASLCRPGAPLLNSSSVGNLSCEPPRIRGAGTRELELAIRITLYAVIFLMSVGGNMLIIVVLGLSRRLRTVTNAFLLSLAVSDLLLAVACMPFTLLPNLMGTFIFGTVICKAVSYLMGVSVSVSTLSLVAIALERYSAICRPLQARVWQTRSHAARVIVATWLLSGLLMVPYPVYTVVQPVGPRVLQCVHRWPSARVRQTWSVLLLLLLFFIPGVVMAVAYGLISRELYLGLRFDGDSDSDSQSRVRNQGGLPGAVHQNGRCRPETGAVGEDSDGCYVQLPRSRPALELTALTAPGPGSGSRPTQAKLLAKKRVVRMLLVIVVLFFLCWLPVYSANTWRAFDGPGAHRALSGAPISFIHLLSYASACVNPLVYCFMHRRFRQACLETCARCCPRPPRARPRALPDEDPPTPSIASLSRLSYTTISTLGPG

## CSCC[C@H](NC(=O)[C@H](Cc1c[nH]c2ccccc12)NC(=O)CNC(=O)[C@H](Cc1ccc(O)cc1)NC(=O)[C@H](C)NC(=O)[C@@H](CCC(=O)O)NC(=O)CCSC1CC(=O)N(CCC(=O)NC2CCCN(O)C(=O)C=C(C)CCOC(=O)C(NC(=O)CCN3C(=O)CC(SCCC(=O)N[C@H](CCC(=O)O)C(=O)N[C@@H](C)C(=O)N[C@@H](Cc4ccc(O)cc4)C(=O)NCC(=O)N[C@@H](Cc4c[nH]c5ccccc45)C(=O)N[C@@H](CCSC)C(=O)N[C@@H](CC(=O)O)C(=O)N[C@@H](Cc4ccccc4)C(N)=O)C3=O)CCCN(O)C(=O)C=C(C)CCOC(=O)C(NC(C)=O)CCCN(O)C(=O)C=C(C)CCOC2=O)C1=O)C(=O)N[C@@H](CC(=O)O)C(=O)N[C@@H](Cc1ccccc1)C(N)=O (stereo partly drawn) [^89Zr-labelled Dimer, metal not drawn]
[1]
  Distribution coefficient logD (pH 7.4): −2.83 ± 0.02
[2]
  Tumour-to-organ ratio (T/O): A431-mock: 11.2 ± 2.3
  Tumour-to-organ ratio (T/O): Blood: 7.4 ± 2.3^c
  Tumour-to-organ ratio (T/O): Bone: 7.4 ± 1.2^c
  Tumour-to-organ ratio (T/O): Heart: 9.8 ± 4.8
  Tumour-to-organ ratio (T/O): Intestine: 12.5 ± 3.1
  Tumour-to-organ ratio (T/O): Kidneys: 0.15 ± 0.06
  Tumour-to-organ ratio (T/O): Liver: 10.3 ± 3.2^c
  Tumour-to-organ ratio (T/O): Lung: 7.6 ± 2.9^c
  Tumour-to-organ ratio (T/O): Muscle: 7.9 ± 5.3
  Tumour-to-organ ratio (T/O): Pancreas: 9.2 ± 3.1^c
  Tumour-to-organ ratio (T/O): Spleen: 10.5 ± 4.5
  Tumour-to-organ ratio (T/O): Stomach: 3.4 ± 1.1
[2]; 1 h
  Biodistribution: A431-CCK2R tumour (receptor positive): 7.69 ± 1.34^ac % ID/g
  Biodistribution: A431-mock tumour (receptor negative): 0.86 ± 0.22 % ID/g
  Biodistribution: Blood: 1.17 ± 0.28 % ID/g
  Biodistribution: Bone: 1.36 ± 0.42 % ID/g
  Biodistribution: Heart: 1.01 ± 0.37 % ID/g
  Biodistribution: Intestine: 0.73 ± 0.25 % ID/g
  Biodistribution: Kidneys: 55.5 ± 10.3 % ID/g
  Biodistribution: Liver: 0.83 ± 0.20 % ID/g
  Biodistribution: Lung: 1.16 ± 0.28 % ID/g
  Biodistribution: Muscle: 1.51 ± 0.70 % ID/g
  Biodistribution: Pancreas: 0.95 ± 0.23^c % ID/g
  Biodistribution: Spleen: 0.99 ± 0.40 % ID/g
  Biodistribution: Stomach: 2.99 ± 1.13 % ID/g

## CSCC[C@H](NC(=O)[C@H](Cc1c[nH]c2ccccc12)NC(=O)CNC(=O)[C@H](Cc1ccc(O)cc1)NC(=O)[C@H](C)NC(=O)[C@@H](CCC(=O)O)NC(=O)CCSC1CC(=O)N(CCC(=O)NC2CCCN(O)C(=O)C=C(C)CCOC(=O)C(NC(C)=O)CCCN(O)C(=O)C=C(C)CCOC(=O)C(NC(C)=O)CCCN(O)C(=O)C=C(C)CCOC2=O)C1=O)C(=O)N[C@@H](CC(=O)O)C(=O)N[C@@H](Cc1ccccc1)C(N)=O (stereo partly drawn) [^89Zr-labelled Monomer, metal not drawn]
[1]
  Distribution coefficient logD (pH 7.4): −3.17 ± 0.06
[2]
  Tumour-to-organ ratio (T/O): A431-mock: 7.5 ± 1.8
  Tumour-to-organ ratio (T/O): Blood: 9.0 ± 4.7^b
  Tumour-to-organ ratio (T/O): Bone: 4.7 ± 1.3^b
  Tumour-to-organ ratio (T/O): Heart: 14.8 ± 4.7^b
  Tumour-to-organ ratio (T/O): Intestine: 7.9 ± 2.3
  Tumour-to-organ ratio (T/O): Kidneys: 0.17 ± 0.03^b
  Tumour-to-organ ratio (T/O): Liver: 12.4 ± 2.8^b
  Tumour-to-organ ratio (T/O): Lung: 6.5 ± 1.6^b
  Tumour-to-organ ratio (T/O): Muscle: 15.9 ± 4.2^b
  Tumour-to-organ ratio (T/O): Pancreas: 13.3 ± 2.9^b
  Tumour-to-organ ratio (T/O): Spleen: 18.7 ± 6.1^b
  Tumour-to-organ ratio (T/O): Stomach: 4.9 ± 1.3^b
[2]; 1 h
  Biodistribution: A431-CCK2R tumour (receptor positive): 1.91 ± 0.40 % ID/g
  Biodistribution: A431-mock tumour (receptor negative): 0.26 ± 0.05^ab % ID/g
  Biodistribution: Blood: 0.30 ± 0.19^ab % ID/g
  Biodistribution: Bone: 0.42 ± 0.10^ab % ID/g
  Biodistribution: Heart: 0.14 ± 0.05^ab % ID/g
  Biodistribution: Intestine: 0.27 ± 0.10^abd % ID/g
  Biodistribution: Kidneys: 11.3 ± 2.10^ab % ID/g
  Biodistribution: Liver: 0.16 ± 0.04^abd % ID/g
  Biodistribution: Lung: 0.31 ± 0.09^ab % ID/g
  Biodistribution: Muscle: 0.13 ± 0.04^ab % ID/g
  Biodistribution: Pancreas: 0.15 ± 0.04^abd % ID/g
  Biodistribution: Spleen: 0.12 ± 0.04^ab % ID/g
  Biodistribution: Stomach: 0.42 ± 0.14^abd % ID/g

## CSCC[C@H](NC(=O)[C@H](Cc1c[nH]c2ccccc12)NC(=O)CNC(=O)[C@H](Cc1ccc(O)cc1)NC(=O)[C@H](C)NC(=O)[C@@H](CCC(=O)O)NC(=O)CCSC1CC(=O)N(CCC(=O)NC2CCCN(O)C(=O)C=C(C)CCOC(=O)C(NC(=O)CCN3C(=O)CC(SCCC(=O)N[C@H](CCC(=O)O)C(=O)N[C@@H](C)C(=O)N[C@@H](Cc4ccc(O)cc4)C(=O)NCC(=O)N[C@@H](Cc4c[nH]c5ccccc45)C(=O)N[C@@H](CCSC)C(=O)N[C@@H](CC(=O)O)C(=O)N[C@@H](Cc4ccccc4)C(N)=O)C3=O)CCCN(O)C(=O)C=C(C)CCOC(=O)C(NC(=O)CCN3C(=O)CC(SCCC(=O)N[C@H](CCC(=O)O)C(=O)N[C@@H](C)C(=O)N[C@@H](Cc4ccc(O)cc4)C(=O)NCC(=O)N[C@@H](Cc4c[nH]c5ccccc45)C(=O)N[C@@H](CCSC)C(=O)N[C@@H](CC(=O)O)C(=O)N[C@@H](Cc4ccccc4)C(N)=O)C3=O)CCCN(O)C(=O)C=C(C)CCOC2=O)C1=O)C(=O)N[C@@H](CC(=O)O)C(=O)N[C@@H](Cc1ccccc1)C(N)=O (stereo partly drawn) [^89Zr-labelled Trimer, metal not drawn]
[1]
  Distribution coefficient logD (pH 7.4): −2.41 ± 0.04
[2]; 1 h
  Biodistribution: A431-CCK2R tumour (receptor positive): 4.28 ± 0.95^b % ID/g
  Biodistribution: A431-mock tumour (receptor negative): 0.81 ± 0.24^d % ID/g
  Biodistribution: Blood: 1.46 ± 0.32^d % ID/g
  Biodistribution: Bone: 1.39 ± 0.65 % ID/g
  Biodistribution: Heart: 0.92 ± 0.21^d % ID/g
  Biodistribution: Intestine: 0.56 ± 0.14^d % ID/g
  Biodistribution: Kidneys: 57.7 ± 14.4^e % ID/g
  Biodistribution: Liver: 0.84 ± 0.21^d % ID/g
  Biodistribution: Lung: 1.44 ± 0.39^d % ID/g
  Biodistribution: Muscle: 0.47 ± 0.18^cd % ID/g
  Biodistribution: Pancreas: 1.56 ± 0.44 % ID/g
  Biodistribution: Spleen: 0.79 ± 0.23^d % ID/g
  Biodistribution: Stomach: 3.10 ± 0.97 % ID/g
[2]; 2 h
  Biodistribution: A431-CCK2R tumour (receptor positive): 8.90 ± 3.10^e % ID/g
  Biodistribution: A431-mock tumour (receptor negative): 0.93 ± 0.29^d % ID/g
  Biodistribution: Blood: 1.19 ± 0.32^d % ID/g
  Biodistribution: Bone: 2.07 ± 0.68 % ID/g
  Biodistribution: Heart: 0.91 ± 0.25^d % ID/g
  Biodistribution: Intestine: 0.44 ± 0.30^d % ID/g
  Biodistribution: Kidneys: 96.5 ± 23.6^f % ID/g
  Biodistribution: Liver: 1.28 ± 0.35^d % ID/g
  Biodistribution: Lung: 1.21 ± 0.23^d % ID/g
  Biodistribution: Muscle: 0.42 ± 0.07^d % ID/g
  Biodistribution: Pancreas: 1.51 ± 0.40 % ID/g
  Biodistribution: Spleen: 0.90 ± 0.25^d % ID/g
  Biodistribution: Stomach: 3.15 ± 0.75 % ID/g
[2]; 4 h
  Biodistribution: A431-CCK2R tumour (receptor positive): 14.39 ± 3.92 % ID/g
  Biodistribution: A431-mock tumour (receptor negative): 0.66 ± 0.06^d % ID/g
  Biodistribution: Blood: 0.75 ± 0.26^d % ID/g
  Biodistribution: Bone: 4.41 ± 1.31 % ID/g
  Biodistribution: Heart: 0.91 ± 0.09^d % ID/g
  Biodistribution: Intestine: 0.65 ± 0.07^d % ID/g
  Biodistribution: Kidneys: 150.5 ± 18.3 % ID/g
  Biodistribution: Liver: 1.71 ± 0.32^d % ID/g
  Biodistribution: Lung: 0.84 ± 0.20^d % ID/g
  Biodistribution: Muscle: 0.62 ± 0.23 % ID/g
  Biodistribution: Pancreas: 2.34 ± 0.59 % ID/g
  Biodistribution: Spleen: 0.95 ± 0.13^d % ID/g
  Biodistribution: Stomach: 3.50 ± 0.86^d % ID/g

## DOTA-MG11: reference peptide: DOTA-conjugated minigastrin analogue MG11 (EAYGWMDF; synthetic human minigastrin analogue)
[3]
  IC50: 9.5 ± 0.5 nM
